Laboratory results: IntAct's records for PubMed 27918561

B1: Negative regulator of P-body association (Homo sapiens), A0A0U1RRE5 (parent)
chain: MGDQPCASGRSTLPPGNAREAKPPKKRCLLAPRWDYPEGTPNGGSTTLPSAPPPASAGLKSHPPPPEK
partner: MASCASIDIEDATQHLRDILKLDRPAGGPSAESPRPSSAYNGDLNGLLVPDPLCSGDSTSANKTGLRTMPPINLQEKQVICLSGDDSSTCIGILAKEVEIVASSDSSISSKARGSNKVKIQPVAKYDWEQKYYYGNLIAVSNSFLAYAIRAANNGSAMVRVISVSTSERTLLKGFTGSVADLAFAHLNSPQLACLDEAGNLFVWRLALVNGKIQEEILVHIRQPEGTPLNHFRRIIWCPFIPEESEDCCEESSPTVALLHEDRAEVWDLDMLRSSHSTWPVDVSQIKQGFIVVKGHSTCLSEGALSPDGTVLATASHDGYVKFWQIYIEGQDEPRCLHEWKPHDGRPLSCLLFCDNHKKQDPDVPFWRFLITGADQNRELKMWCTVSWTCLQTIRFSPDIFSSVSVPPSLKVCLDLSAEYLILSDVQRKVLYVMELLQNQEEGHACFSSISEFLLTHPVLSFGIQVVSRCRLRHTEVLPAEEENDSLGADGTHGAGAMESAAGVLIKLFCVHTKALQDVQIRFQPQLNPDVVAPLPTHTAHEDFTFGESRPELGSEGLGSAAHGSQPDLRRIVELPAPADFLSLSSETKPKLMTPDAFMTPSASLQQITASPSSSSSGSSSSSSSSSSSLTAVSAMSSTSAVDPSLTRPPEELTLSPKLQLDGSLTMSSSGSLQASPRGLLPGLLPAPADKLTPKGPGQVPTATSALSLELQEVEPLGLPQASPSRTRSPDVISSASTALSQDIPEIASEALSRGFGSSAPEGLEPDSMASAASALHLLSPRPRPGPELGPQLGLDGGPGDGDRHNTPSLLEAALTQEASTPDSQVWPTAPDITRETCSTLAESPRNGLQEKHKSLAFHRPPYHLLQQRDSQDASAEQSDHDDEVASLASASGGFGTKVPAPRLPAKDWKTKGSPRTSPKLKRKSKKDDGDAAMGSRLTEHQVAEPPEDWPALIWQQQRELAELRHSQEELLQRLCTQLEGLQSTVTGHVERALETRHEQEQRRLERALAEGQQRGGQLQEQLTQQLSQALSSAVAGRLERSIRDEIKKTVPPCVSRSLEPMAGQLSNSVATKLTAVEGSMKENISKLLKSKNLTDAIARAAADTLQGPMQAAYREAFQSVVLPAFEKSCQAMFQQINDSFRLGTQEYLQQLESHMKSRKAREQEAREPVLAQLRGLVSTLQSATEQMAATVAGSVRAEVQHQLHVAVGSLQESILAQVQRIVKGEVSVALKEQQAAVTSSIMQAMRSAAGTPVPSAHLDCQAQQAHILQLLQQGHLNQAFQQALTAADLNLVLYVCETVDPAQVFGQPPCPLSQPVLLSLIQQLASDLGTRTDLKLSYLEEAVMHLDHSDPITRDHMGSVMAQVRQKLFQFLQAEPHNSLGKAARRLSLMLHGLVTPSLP

Variants of: B1
Conditions: with edc4_human EDC4, Q6P2E9

| effect of a mutation on the interaction | Variant |
| --- | --- |
| disrupting interaction strength | L30A |
| with no effect | G39A |
| with no effect | P41A |
| with no effect | Y36A |
| with no effect | P23A |
| with no effect | R33A |
| with no effect | K22A |
| with no effect | K25A |
| with no effect | P32A |
| with no effect | P24A |
| with no effect | R27A |
| with no effect | K26A |
| with no effect | D35A |
| with no effect | C28A |
| with no effect | T40A |
| with no effect | L29A |
| disrupting interaction strength | W34A |
| with no effect | E38A |
| with no effect | P37A |
